According to publication PMC2212462 (The Journal of Experimental Medicine, 1998):

B1: T cell receptor interacting molecule (TRIM) (natural protein)
chain: MSGISGCPFFLWGLLALLGLALVISLIFNISHYVEKQRQDKMYSYSSDHTRVDEYYIEDTPIYGNLDDMISEPMDENCYEQMKARPEKSVNKMQEATPSAQATNETQMCYASLDHSVKGKRRKPRKQNTHFSDKDGDEQLHAIDASVSKTTLVDSFSPESQAVEENIHDDPIRLFGLIRAKREPIN

Key:
[1] = molecular target: CD3-ε (human (endogenous in HPB-ALL)) (UniProt P07766); test: co-IP
[2] = molecular target: the molecule itself; test: non-reducing and reducing SDS-PAGE with Western blot

Sequence of CD3-ε (human (endogenous in HPB-ALL)) (P07766 23-207): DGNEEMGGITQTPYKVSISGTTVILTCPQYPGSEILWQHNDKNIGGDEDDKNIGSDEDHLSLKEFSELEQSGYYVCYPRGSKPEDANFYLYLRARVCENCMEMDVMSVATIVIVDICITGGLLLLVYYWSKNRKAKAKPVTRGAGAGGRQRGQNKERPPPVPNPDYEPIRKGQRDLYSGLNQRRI

Molecule | reduction of TRIM in the lysate after depletion of CD3 [1] [%] | stoichiometry N [2]
T cell receptor interacting molecule (TRIM) (from UniProt Q6PIZ9 1-186) (natural protein) | 67 | –
B1 | – | 2
